Measured values from patent US20140193915, “COMPOSITIONS AND METHODS FOR CUSTOM SITE-SPECIFIC DNA RECOMBINASES” (Monsanto Technology, LLC, published 2014).
Residue numbers refer to the chain shown, from its start.

Experiments:
sN-TALER V.2 = target: T1, sN-TALER V.2 (synthetic); assay: cell_activity; E. coli
T1 chain: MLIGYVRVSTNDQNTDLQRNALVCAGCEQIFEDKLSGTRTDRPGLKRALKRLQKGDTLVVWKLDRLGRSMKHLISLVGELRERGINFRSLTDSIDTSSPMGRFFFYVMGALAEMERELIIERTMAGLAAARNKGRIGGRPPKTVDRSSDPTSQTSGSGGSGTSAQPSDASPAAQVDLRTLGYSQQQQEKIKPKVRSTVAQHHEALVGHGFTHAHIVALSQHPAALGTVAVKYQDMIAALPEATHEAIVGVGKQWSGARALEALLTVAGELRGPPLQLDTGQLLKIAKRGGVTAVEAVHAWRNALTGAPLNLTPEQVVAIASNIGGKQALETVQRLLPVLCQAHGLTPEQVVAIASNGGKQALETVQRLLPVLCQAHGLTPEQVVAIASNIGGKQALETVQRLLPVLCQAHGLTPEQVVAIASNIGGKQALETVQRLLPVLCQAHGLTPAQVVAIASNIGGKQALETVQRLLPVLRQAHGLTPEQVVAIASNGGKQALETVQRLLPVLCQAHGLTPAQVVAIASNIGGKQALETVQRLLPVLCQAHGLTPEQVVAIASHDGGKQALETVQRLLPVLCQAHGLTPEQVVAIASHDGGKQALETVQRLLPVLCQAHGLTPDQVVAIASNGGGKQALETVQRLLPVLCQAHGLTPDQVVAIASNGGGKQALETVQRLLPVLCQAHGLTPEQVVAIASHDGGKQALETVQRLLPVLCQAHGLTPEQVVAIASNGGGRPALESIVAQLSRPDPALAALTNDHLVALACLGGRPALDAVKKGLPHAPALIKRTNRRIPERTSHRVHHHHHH
Procedure: (§1) The co-transformed bacteria were plated on media with chloramphenicol, kanamycin, and X-gal then incubated at 37° C. for 18 to 36 hours. Control samples consisted of transformations using the reporter construct alone. Control transformants were similarly plated. The bacterial transformation protocol was either heat shock or electroporation per standard molecular biology techniques.
(§2) For each of these N-TALER chimera expression constructs, from one to three independent clones were selected for plasmid purification. These N-TALER chimera expression constructs were co-transformed with five of the N-TALER reporter constructs, as indicated in Table 15. […] In contrast to the result for pN-TALER N4.2.2, the chimera sN-TALER N4.2.2, with the same truncation point but a specific recombinase catalytic domain, reporters with 20, 24, or 40 bp of TALER central sequence length were efficiently recombined (score of 1) while reporters with 30 or 50 bp of TALER central sequence length were not recombined (score of 5). For the chimera sN-TALER N4.2, reporters with 20, 24, or 40 bp of TALER central sequence length were efficiently recombined (score of 1); the reporter with 30 bp of TALER central sequence length was poorly recombined (score of 3); and the reporter with 50 bp of TALER central sequence length was not recombined (score of 5). For the chimera pN-TALER N4.2, the recombination efficiency on the reporters tested varied from intermediate (scores of 3 and 4) to none (score of 5). […] In contrast to the result for sN-TALER N3.2, the chimera pN-TALER N3.2, with the same truncation point but a permissive recombinase catalytic domain, recombination efficiency on the reporters tested varied from efficient (scores of 1.5, 2, and 3) to none (score of 5). For both chimeras sN-TALER V.2 and pN-TALER V.2, there was efficient recombination (scores of 1, 1.5, and 2) of the 5 N-TALER reporter constructs tested.

sN-TALER N4.2 = target: T2, sN-TALER N4.2 (synthetic); assay: cell_activity; E. coli
T2 chain: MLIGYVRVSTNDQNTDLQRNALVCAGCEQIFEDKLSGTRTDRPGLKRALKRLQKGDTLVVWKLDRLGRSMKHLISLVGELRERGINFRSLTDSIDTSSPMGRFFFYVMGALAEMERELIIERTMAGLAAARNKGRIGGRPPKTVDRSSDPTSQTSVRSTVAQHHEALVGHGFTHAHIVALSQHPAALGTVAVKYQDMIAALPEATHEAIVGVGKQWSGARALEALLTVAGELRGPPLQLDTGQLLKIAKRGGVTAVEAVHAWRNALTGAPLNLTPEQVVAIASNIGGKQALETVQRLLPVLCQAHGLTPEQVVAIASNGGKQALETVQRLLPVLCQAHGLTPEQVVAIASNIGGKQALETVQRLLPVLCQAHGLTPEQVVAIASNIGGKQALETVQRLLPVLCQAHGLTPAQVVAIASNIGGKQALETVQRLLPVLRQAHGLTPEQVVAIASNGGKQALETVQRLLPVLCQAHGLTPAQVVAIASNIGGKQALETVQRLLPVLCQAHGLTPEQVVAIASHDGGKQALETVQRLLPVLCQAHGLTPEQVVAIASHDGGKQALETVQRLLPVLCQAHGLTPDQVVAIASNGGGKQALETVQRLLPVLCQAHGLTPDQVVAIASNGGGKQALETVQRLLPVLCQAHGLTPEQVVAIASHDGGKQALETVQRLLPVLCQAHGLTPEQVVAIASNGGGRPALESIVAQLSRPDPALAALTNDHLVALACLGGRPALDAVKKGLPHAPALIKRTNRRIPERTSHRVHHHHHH
Procedure: as §1, §2

B1: Gin18TALE+1 (dsDNA)
DNA 1: AGAAGGTATTTATATCCAAAACCATGGTTTACAATATAAATACCTTCT
DNA 2: B1 DNA 1 with C16T, C17G, A18T, A31T, C32G, A33G
Binder B1 has an activity (sN-TALER V.2) of 1 score and an activity (sN-TALER N4.2) of 1 score.
